Experimental data from PMC5691135, “The semiquinone swing in the bifurcating electron transferring flavoprotein/butyryl-CoA dehydrogenase complex from Clostridium difficile” (Nature Communications, 2017).

Target: the molecule itself
Assay: crystal structure; X-ray structure of the co-produced and co-purified (EtfAB/Bcd)4 complex at 3.1 Å, D state; crystallised in 0.1 M calcium acetate, 14 % (v/v) PEG 400, 0.1 M MES, pH 6.5; protein at 20 mg/ml in 10 mM MOPS and 1 mM FAD, pH 7.0

B1: Butyryl-CoA dehydrogenase (Bcd) of the EtfAB/Bcd complex from Clostridium difficile (enzyme)
chain: MDLNSKKYQMLKELYVSFAENEVKPLATELDEEERFPYETVEKMAKAGMMGIPYPKEYGGEGGDTVGYIMAVEELSRVCGTTGVILSAHTSLGSWPIYQYGNEEQKQKFLRPLASGEKLGAFGLTEPNAGTDASGQQTTAVLDGDEYILNGSKIFITNAIAGDIYVVMAMTDKSKGNKGISAFIVEKGTPGFSFGVKEKKMGIRGSATSELIFEDCRIPKENLLGKEGQGFKIAMSTLDGGRIGIAAQALGLAQGALDETVKYVKERVQFGRPLSKFQNTQFQLADMEVKVQAARHLVYQAAINKDLGKPYGVEAAMAKLFAAETAMEVTTKAVQLHGGYGYTRDYPVERMMRDAKITEIYEGTSEVQRMVISGKLLK
notes: Butyryl-CoA dehydrogenase of Clostridium difficile DSM 1296 (ATCC 9689), gene bcd (CD 1054); N-terminal helical domain 1-116, medial β-sheet domain 117-227, C-terminal helical domain 228-378; Tetramer that forms the core of the (EtfAB/Bcd)4 complex; also called Bcd1; Bcd2
stoichiometry N: 4
